A short description of the data set: yeast display, Sf9 membrane polyspecificity reagent, FACS + sequencing; frameworks hold sequencing errors. In short, it runs like this: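 Sorting gates, low and high (top ~1%), were placed on anti-HA fluorescence to track expression and on streptavidin fluorescence to track reagent binding. A clone's polyreactivity label is taken from the gate it came out of. The reagent was 10% biotinylated, detergent-solubilized Sf9 membrane, applied for 1 hour at 4 °C to galactose-induced yeast display cells.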
“QVHLVESGGGLVQAGGNLRLICAASGSIFSDYTIGWYRQAPGKERELVAVITLSSGSTYFADSVKGRFTISRDNAKNTDYLQMNSLKPEDTAVYYCAADGWYYFGSGVFEYDYWRQGTQVTVSS”: the “polyreactivity (PSR sort gate)” value is “low polyreactivity”.

As to “QVQLVESGGGLLQAGGSLRLSCAASGSTFYFYARGWYRQAPGKERELVAAITGSGGSTYYAVYVKGRFTISRDNSRNSVYLQMKSVKPEDTAVYYCAAGWWYYVHMDYWGQGTQVTVSS”, the “polyreactivity (PSR sort gate)” value was “high polyreactivity”.

Turning to “QVQLVESGGGLVQAGGSLRLSCAASGSTFLYYAMGWYRQEPGKERELVAAINWNGGSTYYADSVKGRFTISRDNAKNTVYLQMNSLKPEDTAVYYCNAYGISPYEYYYWGQGTQVTVSS”, the “polyreactivity (PSR sort gate)” value is listed as “low polyreactivity”.

In the case of “HVQLVESGGGLVQAGGSLRLSCAASGRILHLNAMGWYRQAPGKERELVAAITRSGSSTYYADSVKGRFTISRDNAKNTVYLQMNSLKAEDTAVYYCAADWYPHSSAYDYWGQGTQVTVSS”, the “polyreactivity (PSR sort gate)” value is on record as “low polyreactivity”.

On to “QVQLVESGGGLVQAGGSLRLSCAASGLIFVKNTMGWYRQAPGKERELVAGISQRGGSTYYADSVKGRFTISRDNAKNSVYLQMNILKPEDTAVFYCAAYSRTFEGHRGGYWGQGTQVTVSS”, for which the “polyreactivity (PSR sort gate)” value was “high polyreactivity”.

“QVQLVESGGGLVQAGGSLRLSCAASGYAMGWYRQAPGKERELVAAISWSGDITYADSVKGRFTISRDNAKNTVYLQMNSLKPEDTAVYYCNADRYTGRDGEQSLDYWGQGTQVTVSS”: the “polyreactivity (PSR sort gate)” value is on record as “low polyreactivity”.

For the sequence “QVPLVESGGGLVQAGGSLRLSCAASGSTFSGYAMGWYRQAPGKERELVATITSTGSTNYADSVKGRFTISRDNAKNTVYLQMNSLKPEDTAVYYCNARYLFVERYFLHYASVRYDYWGQGTQVTVST”, the “polyreactivity (PSR sort gate)” value is “low polyreactivity”.

“QVQLVESGGGLVQAGGSLRLSCAASGRIFVYNAMGWYRQAPGKERELVAGINGSGGSTYYAASVKGRFRISRDHAKNSVYLQMNSLKPEDTAGYYCNAWISYGYFIFDYWGQGTQVTVSS”: the “polyreactivity (PSR sort gate)” value is reported as “high polyreactivity”.

Turning to “QVQLVESGGGLVQAGGSLRLSCAASGSIFLSYAMGWYRQAPGKERELVAAITGSGGSTYYADSVKGRFTISRDNAKNTVYLQMNSLKPEDTAVYYCARRRHHVIWYGYWGQGTQVTVSS”, the “polyreactivity (PSR sort gate)” value was “low polyreactivity”.

Take “QVQLVESGGGLVQAGGSLRLSCAASGSIFDYYTMGWYRQAPGKERELVAAITRSGGRTYYADSVKGRFTISRDYAKNTDYLLMNSLKPEDTAVYNCSTGAVSRFGNGPYDFWGQGTQVTVSS”: the “polyreactivity (PSR sort gate)” value is on record as “high polyreactivity”.

As to “QVQLVESGGGLVQAGGSLRLSSAASGRTFYWYAMGWYRQAPGKQRELVASISIDGRTYYADSVKGRFTISRDNAKNNVYLQMNSLKPEDTAVYYCNVVRYYPYRPTTKRGGGYWGQGTQVSVSS”, the “polyreactivity (PSR sort gate)” value is on record as “high polyreactivity”.

Turning to “QVQLVESGGGLVQAGGSLRLICAASGRIFYPYAMGWYRPAPGKERELVATITRTGSTYYADSVKGRFTISRDNAKNTVYLHMNSLKPEDTAVYYCAVQRSYVGPRQYNYWGQGTQVTVSS”, the “polyreactivity (PSR sort gate)” value is recorded as “high polyreactivity”.

For the sequence “QVQLVESGGGLVQAGGSLRLSCAASGFTFANNAMGWYRQAPGKERELVAAISRSGGSTYYADSVKGRFTISRDNAKNTVYLQMNSLKPEDTAVYYCAKAVFYGPCERNYGLDYWGQGTQVTVSS”, the “polyreactivity (PSR sort gate)” value was “high polyreactivity”.

For “QFQLVESGGGLVQAGGSLRLSCAASGGTFDPYAMGLYRQAPGKERELVAAINYGGGSTYYADSVKGRFTISRDNAKNTVYLQMNSLKPEDTAVYYCAADGGRLTTSQLAQWEYDYWGQGTQVTVSS”, the “polyreactivity (PSR sort gate)” value is reported as “low polyreactivity”.

On to “QVQLVESGGGLVQAGGSLRLSCAASGSTFCFNAMGWSRQAPGKEREMVAAIPSRGGSTYYADSVKGRFTSSRDNAKKTVYLQMKSLKPEDTAVYYCASDYFGFSYAGYNYWGQGTQVTVSS”, for which the “polyreactivity (PSR sort gate)” value was “low polyreactivity”.

Turning to “QVQLVVSGGGLVQAGGSLRLSCAASGSIFNVYAMGWYRPAPGKARELVAAITNGDSTNYADSVKGRFTISRDTAKNTVYLQMHSLKPEDTAVYYCNARAPSEYYGLEYDDWGQGTQGTVSS”, the “polyreactivity (PSR sort gate)” value was “low polyreactivity”.

Consider “QVQLVESGGGLVQAGGSLRLSCAASGRIFWYVLGWYRQAPGNERELVATITSSGGSSYYADSVKGRFTISRDNAKNTVYLQMNSLKPEDTAVNYCAVDLQTLGADRIITVYVGEDYWGQGTQVTVSS”, for which the “polyreactivity (PSR sort gate)” value is reported as “low polyreactivity”.

Turning to “QVQLVESGGGLVQAGWSLRLSCAASGRTFTHAMGWYRQAPGKERELVADISSGGSPNYADSVKGRFTISRDNAKNSVYLQMNSLKREDTAVSYCAAVSGSLYGYSVDYWGQGTQVTGSS”, the “polyreactivity (PSR sort gate)” value is reported as “low polyreactivity”.

Take “QVQLVESGGGLVQAGGSLRLSCAASRSTFSGNAMGWYIQAPGKERELVATITSDGTTYYADSVKGRFTISRDNAKNNVYLLMNSLKPEDTAVYYCAARYTAYRDDYWGQGTHVTVSS”: the “polyreactivity (PSR sort gate)” value was “high polyreactivity”.

As to “QVQLVESGGGLVQAGGSLRLSCAASGITFFAYTMGWYRQAHGKERELVASISSSGGSTNYADSVKGRFTISRDNAKNTVYLQMNSLKPEDTAVYYCAARQSLYRGGRWYDYWGQGTQVTVSS”, the “polyreactivity (PSR sort gate)” value is reported as “high polyreactivity”.

Take “QVQLVESGGGLVQAGGSLRLSCAASGRIFRANAMGWYRQAPGKERELVAGITRRGGSTNYADSVKGRFTISRDNAKNTVYLQMNSLKPEDTAVYYCNRDVSLSTSIRMDYWGQGTQVTVSS”: the “polyreactivity (PSR sort gate)” value was “low polyreactivity”.

In the case of “QVQLVESGGGLVQAGGSLRLSCPASGFIYPVYAMGWSRQAPGKERELVAAISRRGGSTYYADSVKGRFTISRDNAKNTVYLQMNSLKPDDTAVYYCAKDGRGDPVKDDYWGLGTQVTVSS”, the “polyreactivity (PSR sort gate)” value is recorded as “high polyreactivity”.

In the case of “QVQLVESGGGLVQAGGSLRLSCAASGYTFIGYAMGWYRQAPGKERELVAAISWSVGRTYYADSVKGRFTISRDNAKNTVYLQMNSLKPEDTAVYYCNAVSSFYYCYDYWGQVTQVTVSS”, the “polyreactivity (PSR sort gate)” value is listed as “low polyreactivity”.

Turning to “QVQLVESGGGLVQEGGSLRLSCAASGSTFHDNAMGWYRQAPGKERELVASITGSSGSTYYADSVKGRFTISRDNAKNTVYLQMNSLKPEDTAVYYCADEGSRWYYFFYGGGGYWGQGTQVTVSS”, the “polyreactivity (PSR sort gate)” value was “low polyreactivity”.

Take “QVQLVESGGGLVQAGGSLRLSCAASGRIFDTNVMGWYRQAPGTEREFVAAIRWNGGSTNYADSVKGRFTISRDNAKNTVYLQMNSLKPEDTAVYYCAADGSIGWRHIYEYWGQATQVTVSS”: the “polyreactivity (PSR sort gate)” value is recorded as “low polyreactivity”.

Take “QVQLQESGAGLVQAGGSLRLSCAASGSIIHLHIMCWYRQAPRKERESVAAISYGTSTYYADSVKGRFTICRDNAKNTVYLQMNSPKPDDTAVYYCAALFLVSKHHHYWGEGTQVTVSS”: the “polyreactivity (PSR sort gate)” value is reported as “low polyreactivity”.

Take “QVQLVESGGGLVQAGGSLRLSCAASGSIFPRNAMGWYRQAPGKERELVAGISSGGSTNYADSVKGRFTISRDNAKNTVYLQMNSLNPEDTAVYYCAARQWIRNLGFGYSIYNYWGQGTQVTVSS”: the “polyreactivity (PSR sort gate)” value is given as “high polyreactivity”.

Take “QVQLVESGGGLVQAGGSLGLSCAASGITFYTYPMGLYRQAPGKERELVAAISRRGGSTYYADSVKGRFTISRDNAKNTVYLHLNSLKPEDTAVYYCNAVADCYSGFDGYYYWGQGTQVTVSS”: the “polyreactivity (PSR sort gate)” value is listed as “high polyreactivity”.

For “QVQLVESGGGLVQAGGSLRLSCAASGITFYSYAMGSYRQAPGKERELVAAISWRGGSTRYADSVKGRFTISRDNAKNTVYLQMNSLKPEDTAVYYCAARLRTKLPIPSTVGYWGQGTQVTVSS”, the “polyreactivity (PSR sort gate)” value was “high polyreactivity”.

“QVQLVESGGGLVQAGGSLRLSCAPSGFIFRLNGMGWYIQAPGKERELVATIDSGSSTNYADSVKGRFTISRDNAKNTVYLQMNSLKPEDTAVYYCAAVVISYYTHGDYDYWGQGTQVTVSS”: the “polyreactivity (PSR sort gate)” value is listed as “low polyreactivity”.

Take “QVQLVESGGGLVQAGGSLRLSSAASGSTFGYNAMGRYRPAPGKERELVAAISRSGGSTSNADSVMGRFTISRDNANNTVYLQMNSLKPEDTAVYYCAARYYKERYWGQGTQVTVSA”: the “polyreactivity (PSR sort gate)” value is “low polyreactivity”.

For the sequence “QVQLVESGGGIVQAGGSLRLSCAASGRTFYYNAMGWYRQAPGKERELVAAISSSGGSTYYADSVKGRFTISRDNAKNTVYLQMNSLKPEDTAGYYCAASSPGARGGGGYWGQGTQVTVSS”, the “polyreactivity (PSR sort gate)” value is “high polyreactivity”.

For the sequence “QVQLVESGGGLVQAGGSLRLSCAASGRIFYGNALGWYRHAPGKERELVATISSSGGRTTYADSVKGRFTISRDNAKNTVYLPMNSLKPEDTAVYYCAAQGYWTGYDYWGQGTQVTVSS”, the “polyreactivity (PSR sort gate)” value is on record as “high polyreactivity”.

In the case of “QVQLVESAGGLVQEGGSLRLSCAASGSTFPYYAMGWYRQAPGKERELVAAISQNGGSTYYADSVKGRFTISRDNAMNTVYLQMNRLKPEDTAVYYCNADGVGGEYRLSGYAYWGQGTQVTVSS”, the “polyreactivity (PSR sort gate)” value was “low polyreactivity”.

Take “QVQLVESGGGLVQAGGSLRLSCAASGSNFSDYAMGWYRQAPGKEREFVATITWSGTSTYYADSVKGRFTISRDNAKNTVYLQMNSLKAEDTAVYYCAAELLFWLGLVPGTIFDEFDYWGQGTQVTVSS”: the “polyreactivity (PSR sort gate)” value is given as “low polyreactivity”.

On to “QVQHVESGGGLVQAGGSLRLSCAASGFTFVYYVMGWYRQAPGKERELVAAINAGGGSTYYADSVKGRFTISRDNAKNTVYLQMNSLKPEDTAVYYCNARVRVRLGRNWSSYYYWGQGTQVTVSS”, for which the “polyreactivity (PSR sort gate)” value is reported as “high polyreactivity”.

On to “QVQLVESGGGLVQAGGSLRLSCAASGSIFYIYAMGWYRQAPGKERELVAGIRNGGSTKYADSVKGRFTISRDNAKNTVYLQMNSLKPEDTAVYYCAARYYRPYTSSWAHNYRLDDWGQGSQVTVSS”, for which the “polyreactivity (PSR sort gate)” value is recorded as “high polyreactivity”.

With “QVQLVESGGGLVQAGGSLRLSCAASGITFFYYAMGWYRQAPGKERELVAAISTSGGRTYYADSVKGRFTISRDNAKNTVYLQMNSLKPEDTAVYYCAARSRVPPAGPRYDYWGQGTQVTVSS”, the “polyreactivity (PSR sort gate)” value is given as “high polyreactivity”.

Take “QVQLVESGGGLVQAGGSLRLSCAASGRIFRGYAMGLYRQAPGKEREFVAAISWSGGDTYYADSVKGRFTISRDTAKNTVYLQMNSLKPEDTAVYYCATEYRLIPGPFVWPYDYWGQGTQVTVSS”: the “polyreactivity (PSR sort gate)” value is “high polyreactivity”.

As for “QVQLVESGGGLVQAGGSLRLSCAASGSIFRRYDMGWYRQAPGKERELVAAISSSGGSTYYADSVKGRFTISRDNAKNTVYLHMKSLKPEDTAVYYCAADIYDYDRSEYTEYDYWGQGTQVTVSS”, the “polyreactivity (PSR sort gate)” value is recorded as “low polyreactivity”.

The values above are taken from the nanobody polyreactivity screen of Harvey et al. (2022).
